From paper doi:10.1101/2025.09.04.674342 (2025)

Target: CBP KIX domain (residues 586–672) (mouse, UniProt P45481 586-672)
Experiment: NMR

Chain of CBP KIX domain (residues 586–672) (P45481 586-672): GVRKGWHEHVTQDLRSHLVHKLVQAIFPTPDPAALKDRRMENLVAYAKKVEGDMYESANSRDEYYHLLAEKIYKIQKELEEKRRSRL

Kd: > 500 µM
Binder: FSDLPWPL [BMAL1 TAD switch peptide (residues 619–626, FSDLPWPL)]
